Results reported in US20180217132, “MEASUREMENT METHOD AND MEASUREMENT DEVICE” (KYOCERA CORPORATION, published 2018).

Biological target: Hemoglobin A0 (HbA0) (UniProt P69905;P68871 P69905:2-142,P68871:2-147)
Experiment: SPR; Biacore T200, HBS-P + 1 mM MgCl2 pH 7.4; method of Kd not explicitly stated
Conditions: tags: none; denatured

Chain of Hemoglobin A0 (HbA0) (P69905 2-142, chain 1 of 2): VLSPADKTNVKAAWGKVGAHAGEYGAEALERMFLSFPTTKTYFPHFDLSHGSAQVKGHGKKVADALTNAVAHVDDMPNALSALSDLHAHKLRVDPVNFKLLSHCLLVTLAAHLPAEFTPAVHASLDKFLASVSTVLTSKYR
Chain of Hemoglobin A0 (HbA0) (P68871 2-147, chain 2 of 2): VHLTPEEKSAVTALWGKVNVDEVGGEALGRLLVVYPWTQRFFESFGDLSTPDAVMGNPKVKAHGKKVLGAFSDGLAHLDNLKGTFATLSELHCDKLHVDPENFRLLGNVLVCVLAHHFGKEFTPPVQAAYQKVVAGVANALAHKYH

B1: RNA aptamer A (ssRNA)
RNA: GGGAUAGGAUCCACAUCUACGUAUUACGGCAUUAUUAGGACCAAUGCUGAGUACGGCGCACAGCUUUUUUCACUGCAGACUUGACGAAGCUUAAAAAAAAAAAAAAAAAA
modifications: 2'-F at A and U
With B1 the Kd was 0.16 µM.
